Assays:
[1] = molecular target: the molecule itself; test: native gel or EMSA; BN-PAGE of 5 μg of purified protein incubated with 1.5 μg of PI(4,5)P2 (micelles) for 0-30 min
[2] = molecular target: the molecule itself; test: native gel or EMSA; blue native (BN-PAGE, 5-14% or 6-14%) or clear native (CN-PAGE, 6%, 4 °C) gels of purified soluble protein without lipid; Coomassie or Western blot (CAPS or Myc antibody); 20 mM HEPES, 10 mM NaCl, 10 mM imidazole, 5% glycerol, pH 7.4 for CN-PAGE
[3] = molecular target: the molecule itself; test: cell-based or functional assay
[4] = molecular target: the molecule itself; test: atomic force microscopy (volume analysis); 100 pM CAPS dried onto freshly cleaved mica

B1: CAPS(ΔC2)-Myc-His (natural protein)
chain: not shown
notes: CAPS, Rattus norvegicus, NP_037351.1; amino acids 400-516 deleted from the CAPS ORF, residue 399 directly fused to residue 517; also called ΔC2-CAPS; source: HEK293-FT, transfected, purified as Myc-His fusion protein
Q: Does B1 bind [1]?
A: Result: binds

B2: CAPS(G476E)-Myc-His (natural protein)
chain: not shown
notes: CAPS, Rattus norvegicus, NP_037351.1, point mutant made on pcDNA3.1 CAPS-Myc-His; also called counterpart of unc-31(e714); source: HEK293-FT, transfected, purified as Myc-His fusion protein
Q: Does B2 bind [2]?
A: Result: binds

B3: CAPS-Myc-His (recombinant wild-type rat CAPS) (natural protein)
chain: not shown
notes: the CAPS ORF in pcDNA3.1 CAPS-Myc-His; the words 'full length' are used only for the antigen of the antibody; also called CAPS-1; CADPS; source: HEK293-FT, transfected (calcium phosphate), purified (nickel-nitrilotriacetic acid column)
Q: For B3, which “Ca2+-dependent norepinephrine secretion from permeable PC12 cells: activity of bound CAPS-Myc-His (exclusively dimer) after wash, relative to added CAPS-Myc-His” value [3] is on record?
A: Its value is ~50%.

Q: What about the “stoichiometry N” value [4] of the same protein?
A: Its value is 2.

Reference: article PMC5076532, “The Vesicle Priming Factor CAPS Functions as a Homodimer via C2 Domain Interactions to Promote Regulated Vesicle Exocytosis*” (The Journal of Biological Chemistry, 2016)
